Measured values from article PMC12594388, “Enzymatic properties of a L-asparaginase without secondary glutaminase activity from Streptomyces scabrisporus” (PLOS One, 2025).

How the values were obtained:
[1] = substrate: NC(=O)C[C@H](N)C(=O)O; assay: Nessler ammonium assay, Michaelis-Menten fit; assay type: biochemical, Rhizobium etli; details: physiological pH (printed as pH 7 and as phosphate pH 7.4), 37 °C
[2] = substrate: NC(=O)C[C@H](N)C(=O)O; assay: Nessler ammonium assay, Michaelis-Menten fit; assay type: biochemical, Embleya scabrispora; details: pH 10 (optimum), 37 °C, 0.5-20 mM asparagine
Text: Nessler ammonium assay, Michaelis-Menten fit on S. scabrisporus L-asparaginase

B1: R. etli L-asparaginase (Rhizobium etli CFN 42) (protein)
chain: MTPSEDFVVTDRGGIVENSHRVHAAVVDAKGRLLYALGNPTRMTLARSAAKPAQALAILETEGVAGYGFDDADIALMCASHSSEDRHIARTRAMLSKIKAEEADLRCGGHPSLSEMVNRSWIKQDFIPTAVCSNCSGKHVGMLAGARAIGAGTDGYHLPDHPMQGRVKRTVAELCDLDAGDVEWGTDGCNLPTPAFPLDRLGRIYAKLASAADGSDAGEGQSTRCAALAHIFRAMARHPEMVAGEGRYCTMLMRAFDGALVGKLGADASYAIGVRASDATRQLGTDGALGISVKIEDGNLEMLYAVVTELLERLGIGSPDVRSQLASFHHPQRVNTMGVTTGGVSFPFKLRGSKSNVDDPRLAAVAR
notes: pET28a (NcoI/EcoRI; pET28a-AnsRe), E. coli BL21(DE3), HisTrap purified, 38 kDa
**Q.** B1 was tested. Which Km [1] did it give?
**A.** 15.9 ± 4.7 mM

**Q.** What about the kcat [1] of the same protein?
**A.** 140.3 ± 7 s⁻¹

B2: S. scabrisporus L-asparaginase (Embleya scabrispora) (protein)
chain: MRPEDTVPHESTTRYAELAEVVRSGFVESRHFGSLVALAPDGRPALELGVPNEPVVPRSSAKPFQALACLRAGAPLSGAHVAIAAGSHTGQDFHVDAVEDILTRSGLTFDALGCPPSRPEDEDTYQEMIARGEENTRERMNCSGKHAAMLAACVASGWPTEGYLDPGHPLQVLVREGIEELAGESVAHTAVDGCGAPVFAMTLTGLARGVRALATATTGPERVVAKAMREHPAYVGGDGQANTEVMRLLPGVLVKGGAEGVFVAATTAGHAVAVKVIDGSPRATTALALAALHRLGVDVSAASEWTTVPVLGGGLPVGEVRVTSHLG
notes: codon-optimised gene in pET28a(+) (NdeI/EcoRI; pET28a-AnsSs), E. coli BL21(DE3), HisTrap purified, 34 kDa
**Q.** Which Km [2] does the source give for B2 here?
**A.** 7.361 ± 1.78 mM

**Q.** What about the kcat [2] of the same protein?
**A.** 40.8 ± 2 s⁻¹
